# Earlier results, collected in PMC10449480.
# Biological target: tryptophanyl-tRNA synthetase (Geobacillus stearothermophilus) (UniProt P00953)
substance,measurement,value
tryptophanyl-tRNA synthetase (from UniProt P00953),Kd,5 nM
